# Assay: soluble on expression in E. coli; label from the status in PepcDB or PDB records
row,Sequence,soluble on expression in E. coli
1,MAQHHGHLGAVYDAAGPQEVAALYDRWAETYESEMARAGYRHPAIGVALLARHLPRGARPLLDAGAGTGLLGEWLEIVGYPEVEALDISAGMLEVARAKGIYARCHNLPLGAALPFRDGAFAGIISTGVFTTGHVGAEALPELLRICRPGGVIVLTVKESLWQGGFAVSLEAAVASGLEHHHHHH,not soluble
2,MTKKHREGLSLRAFAKKMRVSPNAVVSRFKTGKFDQALFEDGSVNEALATAIWNENPTKRPAPFLAPDGQPRTKIKQVSTEGANEYEIKLERMQVALESEKIALERLRETTVDREEVKRAAREFGRAHRDAMLNFPHRFGASIAAQVGCDAASLIGAIDYYIRKALLEAVHIPVPFHDPHSPELENLQETNNG,not soluble
3,MKEPLDLSKYSVRTDLAVEAHQMLQERQEEQQQGIQGVIVKEREEEGIIITKVTIDEVASESMGKKPGNYLTLEVQGIRQQDTELQQKVERIFAKEFSYFLEEVGVTKEASCLIVGLGNWNVTPDALGPIVVENVLVTRHLFQLQPESVEEGFRPVSAIRPGVMGITGIETSDVIYGIIEKTKPDFVIAIDALAARSIERVNSTIQISDTGIHPGSGVGNKRKELSKETLGIPVIAIGVPTVVDAVSITSDTIDFILKHFGREMKEGNKPSRSLLPAGFTFGEKKKLTEEDMPDEKSRNMFLGAVGTLEDEEKRKLIYEVLSPLGHNLMVTPKEVDAFIEDMANVIASGLNAALHHQIDQDNTGAYTH,not soluble
4,MGSVVPHYSWFSGITQFQKGKEFQFAEGQGVPIANGIPASEQKGYWYRHNRRSFKTPDGQQKQLLPRWYFYYLGTGPHAGASYGDSIEGVFWVANSQADTNTRSDIVERDPSSHEAIPTRFAPGTVLPQGFYVEGSGRS,soluble
5,GPGSMTALSLALGIHDQATTKFGSKDFCDAVEAEAAAANAHQYRMFLLAMETLLQRQWEHYCFHGGNHITKSQQLEEKRLCRYFSVHCMNMEGRGCRDERKHRKLFGSGAAGPLIDFIYRLICHSHCSIECYPITLALTGRFFVEMRKESVATEYEAAVDHLPCVFAVLLLITAKYRDDNFRSNRYFSQLAELSLMEWNALERLVIRVLRFNVNVPFYEYVAYEKLLLKEMMRQEEKKCGFPSIDQSPRSEKMESLMHLDSKNDMSMLFFDHVEMAMKDNASFHSCGVTASSPSLRSQCPLMSVEDSPVSWRQGV,not soluble
6,GMQGKKFISPGAWFSMNYPSDWNEFEDGEGSFLFYNPDVWTGNFRISAFKGNASYGKDAIRQELKENDSASLVKIGTWDCAYSKEMFQEEGTYYTSHLWITGTGNIAFECSFTVPKGGSAKEAEEVIATLEARKEGEKYPAELIPVRLSEIYQINEGYEWVVSTVKQELKKDFQGVEEDLEKIQQVIDSGKISPKKKDEWLAIGITVCAILTNEVEGMEWKTLIDGNREVPVLEYQGRTIDPMKIAWSKVKAGQPCNIAEAYQSAIDHH,soluble
7,GSDDNKTTGATYDPNQPVTVESFMPVEGKLREKVIVKGSNFGTDKSKVKVYFVDEAAERLSTVIGIDNNTLYCLAPRQLPGGNRIKVIVDGKEVTTDGTFKYEQAQNVSTISGSASKDGNDDGDLASAKFKYMWGIAAVGNNTVLAYQRDDPRVRLISVDDNKVTTVHPGFKGGKPAVTKDKQRVYSIGWEGTHTVYVYMKASGWAPTRIGQLGSTFSGKIGAVALDETEEWLYFVDSNKNFGRFNVKTQEVTLIKQLELSGSLGTNPGPYLIYYFVDSNFYMSDQNLSSVYKITPDGECEWFCGSATQKTVQDGLREEALFAQPNGMTVDEDGNFYIVDGFKGYCLRKLDILDGYVSTVAGQVDVASQIDGTPLEATFNYPYDICYDGEGGYWIAEAWGKAIRKYAVE,soluble
8,MEIKKGLEDVYVKETEITYIDGELGRLYYRGYSIYDLAEFSNFEEVSYLILYGKLPNREELNWFQEKLREERYLPDFIIKFLREVRKDAQPMDILRTAVSLLGIEDSKNDERTDIKGIKLISKFPTIVANYARLRKGLDIIEPDPKLSHSENFLYMLYGDRPNEIKSKAMDVTLILHIDHEMNASTFASLVVASTFSDLYSSIVAGISALKGPLHGGANYEALKMFKEIGSPEKVNDYILNRLSNKQRIMGFGHRVYKTYDPRARILKQYAKLLAEKEGGEIYTLYQIAEKVEEIGIKYLGPKGIYPNVDFFSSIVFYSLGFEPDFFPAVFASARVVGWVAHIMEYIKDNKIIRPKAYYKGEIGKKYIPIDSR,soluble
9,MLSTIEYLSLLRKYMRENAVKYGISRMGIFGSVARGEQHDGSDVDICVEIDRPSIFTLVHIKEELEKLFKCPVDVVRLRNNMDELLRNCINKDGIYV,not soluble
10,MSLDEEKVGTEVPDPEISKMLFSEFCKSDGIGVSDVTKEEEFRYEDAWLTGYTYTQEVSIADLTEIISHSLTIQYGNNRSSVTFTDEIGTERKYTLNEEGYATQCEYASLDQKRQYTFLYTDGYLTQVNEKIMPREGSSDAVVAHTLSLQYDKGDLISTISPSLPYESSTGYGKLQTNYEAGEDINYYRLPCMLVADTYPLSFHREALFAGMLGKPTQHLTTASYPEKTSDTYTERTEYTYSFDKNKKPVSLKVSTKYGNGKSISYLNRTISITIEGHHHHHH,soluble
11,MAHHHHHHMLHEVNVGTSDIVRGGHGGDEAATPQQPPALSVVEEHIQRIRLELCGQRHPPSGYASAIAIPSTAAGLDRVAVLVDLLDQVRYWAIEEAFTFKDEPSRLAETEAPEAVVACLCSQRPQLVAQALRVVQPMLRHRQTAYETRRVMVDVWAYREQVNSMVPLPEGLDPLLAMLAEFLEQHKGVLPVLVEALSTATAALVQDGTACVGSDNGNDDNLDGGVSLRRRVAPLVVALHETTLVYQMESAMRRHPDAVPLQVEGVSFCAALVDLPWPFEAEVDSEEGTPTSLADILAHSDGVLDVLHGALRRHRQNLCIARGVLHVWRVCAQHPANRVPLLQHGAYAGALQQLRGVLPYAVGVWREIAETVGYFIPLLDALQRRSLALTLRELLLRRPQLEMLELILALLLSLLMVV,not soluble
12,MSLDFAMLPPEVNSTRMYSGPGAGSLWAAAAAWDQVSAELQSAAETYRSVIASLTGWQWLGPSSVRMGAAVTPYVEWLTTTAAQARQTATQITAAATGFEQAFAMTVPPPAIMANRAQVLSLIATNFFGQNTAAIAALETQYAEMWEQDATAMYDYAATSAAARTLTPFTSPQQDTNSAGLPAQSAEVSRATANAGAADGNWLGNLLEEIGILLLPIAPELTPFFLEAGEIVNAIPFPSIVGDEFCLLDGLLAWYATIGSINNINSMGTGIIGAEKNLGILPELGSAAAAAAPPPADIAPAFLAPLTSMAKSLSDGALRGPGEVSAAMRGAGTIGQMSVPPAWKAPAVTTVRAFDATPMTTLPGGDAPAAGVPGLPGMPASGAGRAGVVPRYGVRLTVMTRPLSGEGHHHHHH,soluble
13,MIVSFKCVHTRYLFLQGKTRLWPSIKSVAERKLAMLDAATSILDLRSPPGNRLEALDGSRSGQYSVRINAPFRICFVWSINGPEDVEIVDYH,not soluble
14,PVERMRMRPWLEEQINSNTIPGLKWLNKEKKIFQIPWMHAARHGWDVEKDAPLFRNWAIHTGKHQPGIDKPDPKTWKANFRCAMNSLPDIEEVKDRSIKKGNNAFRVYRMLP,soluble
15,MCSGYFELKQMFPIIRKIFVEKSNCSSNTHHSKRSIGETAGLKTGERIVGVNGQLIYPTNTHKEVVPLMKQNAMKTTLLEVH,not soluble
16,MGNKAERHRAIQEIVRREEIGTQKELVERLRQLGFEVTQATVSRDIAELGLARIALGKGRHRYVLPAADLPENAYEELKRQFGLFVRDVDRGGNLLVVKTAEGHASGIAYLLDRLRRDEIVGTLAGDDTILVVARTEEAAQALEDEFAGLLVEGRALRRALSGS,soluble
17,MELLLLSNSTLPGKAWLEHALPLIANQLNGRRSAVFIPFAGVTQTWDEYTDKTAEVLAPLGVNVTGIHRVADPLAAIEKAEIIIVGGGNTFQLLKESRERGLLAPMADRVKRGALYIGWSAGANLACPTIRTTNDMPIVDPNGFDALDLFPLQINPHFTNALPEGHKGETREQRIRELLVVAPELTVIGLPEGNWIQVSNGQAVLGGPNTTWVFKAGEEAVALEAGHRF,soluble
18,HTGTVDIVADKTLYQPGETAKMLITFPEPIDEALLTLERDRVEQQSLLSHPANWLTLQRLNDTQYEARVPVSNSFAPNITFSVLYTRNGQYSFQNAGIKVAVPQLDIRVKTDKTHYQPGELVNVELTSSLKGKPVSAQLTVGVVDEMIYALQPE,not soluble
19,GPGSMDTQGIRAVSEYVARGHGSGIVWAWCAASPAAFASMINSPSRTRQAAHERSVHYLSSYEQKSGCVCTVRVDRMGITLNEFHHTVPLWLVTWHTQLLYRLFGPVGVAVHVTDLDSLVLNSLLSAWEGTPVQVTALTSRHRLSTCVSAHRRSTGRVFSVLAGLQDLVLLPSPSVHGSLVVAEYAPLLRRVTASKCCVEYLKPLSQLQHLQEVQLSQTLIRDAELRILAQLPLLTTLDVSSCPHLSSLEPLACAASLRILRASSCERLMLVAQLGTLATLRIVDLSGNVFRPTEFASFITQPTLHLQAGYFAHMRWPRDDPPSTQVLGSVKHLHLSYGTVPNIRWLCGAHSLEQLCLDHTNVTAVDMAVLVQHTPLLSVLSLSYCEHLHTNLDFTRSLHFLAMLTITRSSLPSPFLELVELQQSLSLTLS,not soluble
20,MGSDKIHHHHHHMTYPKRIPINAWSEVHRVARPLIITFDAYNTLYATKLPVMEQYCIVGRKYGIKANPSTLTNNFPHVFKKLKEDYPQYGKYSGIKPEQWWSILIRNVFAPNEIPDEMINEILMRFEGFDSYFVYPDLIKFLKDLKSRHPDVILGIVSNTDPIFYKLLKNIGLFETFSGHIYLSYELNLAKPDRAIFQYALDDIISKQPHLLEKYTREEILQHCFHIGDELKNDLEGAEAAGWTGILLDRNDKYGFLSNSISKPMRDEYKLSIDKIDNNSINTWEANTKQTDTLQLSERKYVVSNLEVLEELFP,not soluble
21,SAAANPWDPASAPNGAGLVLGHFIASGMVNQEMLNMSKKTVSCFVNFTRLQQITNIQAEIYQKNLEIELLKLEKDTADVVHPFFLAQKCHTLQSMNNHLEAVLKEKRSLRQRLLKPMCQENLPIEAVYHRYMVHLLELAVTFIERLETHLETIRNIPHLAANLKKMNQALAKMDILVTETEELAENILKWRKQQNEVSSCIPKILAEESYLYKHDIIMPPLPFTSKVHVQTINAK,soluble
22,MSYNLNLSHNIYKDAKLGTYYFRITYYDKSNTRKYITRKGFKQRKDAVKKCNEMMDELEGVGHLNRLPFDKLVEEYIDWYSARRKTSSVKALKTHTNNHLLPYFKSMDVFKMTTQDVMKFQNKKLKEGHSGDYLKKMHVYLVSLLNHAMKFHELKQNVASLVGNFEIESQKRLNYWTLEQFNQFYEALATQQQKLFFKLLFYSGARKGEIRALTWRDINFDDDFIHINKTDYHGEVTAPKTKSAIRDIYLPTHMMYDIKDYLIWYKENNIYKDDYVLFGTFYKAYSESTIDRW,not soluble
23,MGHHHHHHSHMKNMEQQHIEVVGKLGSTYGIRGWLRIYSSTEQAESIFDYQPWFLKIKGEWQSIELENWRYHNHEIIVKLKGVDDREAAQILANVEIGVDLSVFPELEEGDYYWHDLIGCTVVNLEGYTMGTVTEMMETGSNDVLVVKANTKDAFGKQERLIPFLYEQVVKRVDLTTKTIEVDWDAGF,soluble
24,KSEKRMKLTLKGGAAVDPDSGLEHSAHVLEKGGKVFSATLGLVDIVKGTNSYYKLQLLEDDKENRYWIFRSWGRVGTVIGSNKLEQMPSKEDAIEHFMKLYEEKTGNAWHSKNFTKYPKKFYPLEI,soluble

# Source: the DeepSol protein solubility set
